In the nanobody polyreactivity screen of Harvey et al. (2022):

Assay: yeast display, Sf9 membrane polyspecificity reagent, FACS + sequencing; frameworks hold sequencing errors
Method in brief: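 A nanobody's polyreactivity label depends on the gate it was sorted from. Yeast display cells were stained with 10% biotinylated, detergent-solubilized Sf9 membrane reagent for 1 hour at 4 °C, enriched on streptavidin microbeads and sorted by FACS. The low and high (top ~1%) gates were set on anti-HA fluorescence for expression and streptavidin fluorescence for reagent binding.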

QVRLVESGGGLVQAGCSLRLSCAASGRTFGRYAIGWYRQAPGTERELVAAITGSGGSTYYADSVKGRFTISRDNAKNTVYLQMNSLKPVDTPVYYCNAGWRLGRGYWGQGTQVTLSS
polyreactivity (PSR sort gate): high polyreactivity

QVQLVESGGGLLHAGGSLRLSCAASGLIFSDYVMGWYRQAPWKERELVAGITTGGSTKYADSVKWRFTISRDNAKTTVYLQMNSLKPEDTAVYYCAVGKYNYRGSWDYYWGQGTQVTLSS
polyreactivity (PSR sort gate): high polyreactivity

QVQLVESGGGLVQAGGSLRLSCAASGLIFQEYAMGWYRQAPGKERELVAAITSGDSTNYADSVKGRFTISRDNAKNTVYLQMNSLKPEDTAVYYCNVDEAYYFVGEDNYDYWGQGTQVTVSS
polyreactivity (PSR sort gate): low polyreactivity

QVQLVETGGGLVQAGGSLRLSCAASGRTYAFYAMGWYRQAPGKERELVASISSSGDRPYYADSVKGRFTISRDNAKNTVFLQLNSLKPEDTAVYYCAARWRYTYYYWGQGTQVTVSS
polyreactivity (PSR sort gate): high polyreactivity

QVQLVESGGGLVQAGGSLRLSCAASGSTFKYYAMGWYRQAPGKERELVASISRGGSTNYADSVKGRFTISRDNAKNTVYLQMNSLKPEDTAVYYCAKRRAGTAYDYWGQGTQVTVSS
polyreactivity (PSR sort gate): high polyreactivity

QVQLVESGGGLVKAGGSLRLTCAASGRIFGPYVMGWYRQAPGKERELVAAISTSGTSTYYADSVKGRFTISRDNAKNTVYLQMNSLKPEDTAVYYCAKRSGARHRLMDYWGQGTQVTVSS
polyreactivity (PSR sort gate): low polyreactivity

QVQLVESGGGLVQAGGSLRLSCAASGSIFRFKAMGWYRQAPGKERELVAAISWSGGRTYYADSVKGRFTISRDNAKNTVYLQMNSLKPEDTAVYYCAARRSGLKVSPNFGYWGQGTQVTVSS
polyreactivity (PSR sort gate): high polyreactivity

QVQLVETGGGLVQAGGSLGLSCAASGRTFGVNAMGWYRQAPGKERELVAAITRGGNTYYADSVKGRFTISRDNAKNTVYLQMNSLKPEDTAVYYCAATGWLRIDRPYTYTYGYWGQGTQVTVSS
polyreactivity (PSR sort gate): high polyreactivity

QVQLVESGGGLVQAGGSLRLSCAASGRTFVRNAMGWYRQAPGKERELVAAISSSGGSTYYADSVKGRFTISRDNAKNTVYLQMNSLKPEDTAVYYCAAFRIGREYWGQGTQVTVSS
polyreactivity (PSR sort gate): high polyreactivity

QVQLVESGGCIVQAGGSLRLSCAAYGRIFAKYVMGWSRKAPGKERELVAAITSSGGSTYYADSVKGRFTISRDNAKNTVYVQMNSLKSEDTAVYYGAAGPSYHSSYYSWGQVTQVTVSS
polyreactivity (PSR sort gate): high polyreactivity

QVQLVDSGGGLVQAGGSLRLSCAASGRIFLVNALGGSRQAPGKERELVAAISYRSGRTYSADSVKGRFTISRDTAKNTVYLQMNSLIPEDTAVYYCAAYTNVADMDYWGQGTQVTVSS
polyreactivity (PSR sort gate): high polyreactivity

QVQLVESGGGLVQAGGSLRLSCAASLSIFYVNAMGWYRQAPGKESELVAAISFSGGTTYYADSVKGRFTISRDNAKNTVYLQMNSLKPEDTAVYYCNTPSSREMDYWGQGTQVTVSS
polyreactivity (PSR sort gate): low polyreactivity

QVQLVESGGGLVQAGGSLRLSCAASGRTFSPYMGWYRQAPGKERELVAAISKSGGRTYYADSVKGRFTISRDNAKNTVYLQMNSLKPEDTAVYYCANTGNNYYYALYGYWGQGTQVTVSS
polyreactivity (PSR sort gate): low polyreactivity

QVQLVESGGGLVQAGGSHRLRCADSGFTFYSNAMGCYRQAPGKERELVASITWSGGNTYYADSVKGRFTISRDKAKTTVYLQMNSLKPEDTAVYYCAAGYSRDVQGYARAYRFYYWGQGTQVTVSS
polyreactivity (PSR sort gate): high polyreactivity

QVQLVESGGGLVQAGGSLRLKCAASGSTFRPYAMGWYRQAPGKERELVARITGSGDSTYYADSVKGRFTISRDNAKITVYLQINSLKPEDNAVYYCAREFDYSLSGFDYWGQGTQVTVSS
polyreactivity (PSR sort gate): low polyreactivity

QVQLEESGGGLVQAGGSLRLSCAASGSTFVGNAMGWYRQAPGKERELVAAISFSGGSTYYADSVKGRFTISRDNAKNTVYLQMNSLKPEDTAVYYCAKKTRYRSRGMNYWGQGTQVTVSS
polyreactivity (PSR sort gate): high polyreactivity

QVQLVETGGGLVQAGGSLRLSCAASGIIIQNNAMGWYRQAPGTERELVAAISSSGGRTYYADSVKGRFTISRDNAKNTVYLQMNSLKPEDTEVYYCNKRWRGSYDYWGQGTQVTVSS
polyreactivity (PSR sort gate): high polyreactivity

QVQLVESGGGLVQAGGSLRLSRAASGVIIYRYAMGWYRQAPGKERELVAAISRSGGSTYYADSVKGRFTISRDNAMNTVYLQMNCLKPEDTAVYYCAADRGSLAPGNDYWGQGTQVTVSS
polyreactivity (PSR sort gate): high polyreactivity

QVQLVESGGGLVQAGGSLRLSCAASGSTIIGYTMGWYRQAPGKERELVADISNGGSTNYADSVKGRFTISRDNAKNTVYLQLNSLKPEDTAVYYCNAEAWYYWGWPFFIATYDYWGQGTQVTVSS
polyreactivity (PSR sort gate): low polyreactivity

QVQLVESGGGLVQAGGSLRLSCAASVSIFETYAMGWSRQAPGKERELDAAISSSGGTTYYADSVKGRFTISRDTAKNTVYLQMNSLKPEDTAVYYCAARSAATHWTFLFYYDFDYWGQGTQVTVSS
polyreactivity (PSR sort gate): low polyreactivity

QVQLVESGGGLVQAGGSLRLSCAASGSIFANAMGWYRQAHGKERELVAAISFSGGRTFYADSVKGRFTISRDNAKNTVYLQMNSLKPEDTAVYYCAKGKISSRSGIYNYWGQGTQVTVSS
polyreactivity (PSR sort gate): high polyreactivity

QVQLVESGGGLVQAGGSLRLSCAASGSTFESNAMGWYRQAPGKERELVAAISTSGGSTYYADSVKGRFTISRDNAKNTVYLQMNSLKPEDKAVYYCNAYPEAVRWKYNYWGQGTQVTVSS
polyreactivity (PSR sort gate): low polyreactivity

QVQLVESGRGLVQAGGSLRLSCASSGRIFARNAMGWYRKAPGQEREFVAAITFSGGSTYYAESVKGRFTISRDNAKNTVYLQMNSLKPEDTAVYYCAARSFDDWGQGTQVTVSS
polyreactivity (PSR sort gate): high polyreactivity

QVQIVESGGGLVQAGGNLRLSCAASGFIFTRYAMGWYRQAPGKERELVAAISTSVDRTYYADSVKGRFSISRDNAKNTVYLQMNSLKPEDTAVYYCAVVRPRSVGRYDYWGQGTQVTVSS
polyreactivity (PSR sort gate): high polyreactivity

QVQLVESGGGVVQAGGSLRLSCAASVRTFPGYAMGWYRQAPGKERELVAAISWSGTSTYYADSVKGRFTISRDYAKNTVYLQMNSLKPEYTAVYDCNKVYTYSAPYYYWGQGTQVTVSS
polyreactivity (PSR sort gate): high polyreactivity

QVQLVESGGGLVQAGGSLRLICAASGSIFSRNAMGWYRQAPGKERELVASISWSSDITNYADSGKGRFTISRDNAKNTVYLEMNSLKAEDTAVYYCNVDGLLGERFSWGYDYWRQGTQVTVSS
polyreactivity (PSR sort gate): low polyreactivity

QVQLVESGGGLVQAGGSLRLSSAASGFTFVTYSKGWNRQATGKERELVAAISIRGGSTYADSVKGRFTISRDNAKNSVYLQMNSLKPEDTAVYSCATGRALEYNYWGQGTQVTVSS
polyreactivity (PSR sort gate): low polyreactivity

QDQLVESGRGLVQAGGSLRLSCAASGINIPVYAMGWYRKAPRKERELLAAISSGGSTYYADSVKGRFTISRDNAKNTVYLQMNSLKPEDTAVYYCAAATRSAKYRFGYWGQGTQVTVSS
polyreactivity (PSR sort gate): high polyreactivity

QVQLVESGGGLVQAGGSLRLSCAASGYTFRGNAMGWYRQAPGKERELVAAISIGGTTYYADSVKGRFTISRDNAKNTVYLQMNSLKPVDTAVYYCARRGLAFLFDYWGQGTQVTVSS
polyreactivity (PSR sort gate): low polyreactivity

QVQLVESGGGLVQAGGSLRLSCDASGGTFYRNAMGWYRQAHGKERELVAVISKRGTSTYYADSVKGRFTISRDNAKNTVYLQMNSLKPEDTAVYYCATVYYHLSPNRPYGYWGQGTQVTLSS
polyreactivity (PSR sort gate): high polyreactivity

QVQLVESGGGLVQAGGSLRLSCAASGIIFQRNDMGWYRQAPGKERELVANIRDGGITYADSVKGRFTISRDNAKNTVYLQMNSLKPEDTAVYYCARDDTSPGYGDQSFNAAYYYWGQGTQVTVSS
polyreactivity (PSR sort gate): low polyreactivity

QVQLVESGGCLVQAGGSLRLSCAASGSIFLFNAMGWYRQAPGKDRELVATISWSGVVLRTYADSVKGRFTISRDNAKNTVYLQMNSLKPEDTAVYNCAARDLAFFTEYGYWGQGTQVSVSS
polyreactivity (PSR sort gate): high polyreactivity

QVQLVESGGGLVQAGGSLRLSCAASGRTFKGYAMGWYRQAPGKEREFVATITSRGDRTYYADSVKGRFTISRDNAKNTVSLQMNSLKPEDTAVYYCNARYYWKQAADYNYWGQGTQVTVSS
polyreactivity (PSR sort gate): low polyreactivity

QVQLVESVGGLVQAGGSLRLSCAASGRTFYTYAMGWYRQAPGKERELVAAISSSGSTYYADSVKGRFTISRDNAKKTVYLQMNSLKPEDTAVYYCNARTSRYRRGGDSWGQGTQVTVSS
polyreactivity (PSR sort gate): high polyreactivity

QVQLVESGGGLVQAGGSLRLSCAASGSIFGYYAMGWSRQAPGKEREVVAAISASGGSTYYADSVKGRFTISRDTAKNTVYLQMNSLKPEDTAVYYCAAVRSVTYIWARYPYGLEYWGQGTQVTVSS
polyreactivity (PSR sort gate): high polyreactivity

QVQLVESGGGLVQAGGSLRLSCAASGRTFLGYAMGWYRQAPGKERELVAAISGSGDRTYYADSVKGRFTISRDNAKNTVYLQMNSLKPEDTAVYYCNAVTVRYYASYYGRGMDYWGQGTQVTVSS
polyreactivity (PSR sort gate): high polyreactivity

QVQRVESGGGLVQAGGSLRLSCAASGITFWGYAMGWYRQAPGKDREFVARINWSGGRTYYAESVKGRFRISRDNAKNTVYLQMNSLKPEDTAVYYCNVVLRSVVSGDYWGQGTQVTVSS
polyreactivity (PSR sort gate): high polyreactivity

QVQLVESGGGLVQAGGSLRLSCAASGRIFNSYGMGWYRHAPGKEREFVAAISRSGGITYYADSVKGRFTISRDNAKNTVYLQMNSLKPEDSAVYYCAADYYWRRQRQVGYWGQGTQVTVSS
polyreactivity (PSR sort gate): high polyreactivity

QVQLVESGGGLVQAGVSLRLSCAASGITFNHYTMGWYRQAPGKERELVAAISSRGSTTYYADSVKGRFTISRDNAKNTVYLQMNSLKPEDTAVYYCAAVYYLYSAWRYDYWGQGTQVTVSS
polyreactivity (PSR sort gate): high polyreactivity

QVQLVESGGGLVQAGGSLRLSCAASGRIFLTNTMGWYRQAPGKERELVAGISRGGRTYYADSVKGRFTISRDNAKNTVYLQMNSLKPEDTAVYYCNARLRHSQYAYYYWGQGTQVTVSS
polyreactivity (PSR sort gate): high polyreactivity

QVQLVESAGGLVQAGGSLRLSSDASGFTFYRYAIGWYIQAPGKEREFVAAISWRGTSTYYADSVKGRFKISRDNANNTVYLQMNSLKPEETAVYYCTARRDICWGYHMDYWGQGTQVTVSS
polyreactivity (PSR sort gate): high polyreactivity

QVQLVESGGGLVQAGGSLRLSCAASGSIFPTNAMGWYRQAPGKERELVAAISSRDGSTYYADSVKGRFTISRDNAKNTVYLQMNSLKPEDTAVYYCNTDHDPIYFYITRHDSWGQGTQVTVSS
polyreactivity (PSR sort gate): low polyreactivity

QVQLVESGGGLVQAGGSLRLSCAASGSIFGYNTMGWYRQAPGKERDLVADISVSGDDTYYADSVKGRFTISRDNAKITVYLQMNSLKPEDTAVYYCNADEYYGYYHTYDYWGQGTQVTVSS
polyreactivity (PSR sort gate): low polyreactivity
